Source: PMC10705477 (bioRxiv, 2023)

Legend:
cryo-EM structure = biological target: the molecule itself; experiment: cryo-EM structure
[1] = biological target: the molecule itself; experiment: co-purification on an anion-exchange column

Protein	binding result (cryo-EM structure)	binding result [1]
γ protein of the E. coli clamp loader, truncated form (residues 1–373) (domain or fragment) MSYQVLARKWRPQTFADVVGQEHVLTALANGLSLGRIHHAYLFSGTRGVGKTSIARLLAKGLNCETGITATPCGVCDNCREIEQGRFVDLIEIDAASRTKVEDTRDLLDNVQYAPARGRFKVYLIDEVHMLSRHSFNALLKTLEEPPEHVKFLLATTDPQKLPVTILSRCLQFHLKALDVEQIRHQLEHILNEEHIAHEPRALQLLARAAEGSLRDALSLTDQAIASGDGQVSTQAVSAMLGTLDDDQALSLVEAMVEANGERVMALINEAAARGIEWEALLVEMLGLLHRIAMVQLSPAALGNDMAAIELRMRELARTIPPTDIQLYYQTLLIGRKELPYAPDRRMGVEMTLLRALAFHPRMPLPEPEVPRQ	binds	–
γ-K141A (domain or fragment) MSYQVLARKWRPQTFADVVGQEHVLTALANGLSLGRIHHAYLFSGTRGVGKTSIARLLAKGLNCETGITATPCGVCDNCREIEQGRFVDLIEIDAASRTKVEDTRDLLDNVQYAPARGRFKVYLIDEVHMLSRHSFNALLATLEEPPEHVKFLLATTDPQKLPVTILSRCLQFHLKALDVEQIRHQLEHILNEEHIAHEPRALQLLARAAEGSLRDALSLTDQAIASGDGQVSTQAVSAMLGTLDDDQALSLVEAMVEANGERVMALINEAAARGIEWEALLVEMLGLLHRIAMVQLSPAALGNDMAAIELRMRELARTIPPTDIQLYYQTLLIGRKELPYAPDRRMGVEMTLLRALAFHPRMPLPEPEVPRQ	–	binds
